Data: article doi:10.1101/2024.05.21.594841 (bioRxiv, 2024)
Read-outs that look alike come from different tables or passages of the source.

B1: Kar2p (natural protein)
chain: not shown

Tests used:
Test in all cases: split reporter
Kar2p [1] = target: B1
Mpd1p [2] = target: T1, Mpd1p (S. cerevisiae, UniProt Q12404 22-318)
T1 sequence: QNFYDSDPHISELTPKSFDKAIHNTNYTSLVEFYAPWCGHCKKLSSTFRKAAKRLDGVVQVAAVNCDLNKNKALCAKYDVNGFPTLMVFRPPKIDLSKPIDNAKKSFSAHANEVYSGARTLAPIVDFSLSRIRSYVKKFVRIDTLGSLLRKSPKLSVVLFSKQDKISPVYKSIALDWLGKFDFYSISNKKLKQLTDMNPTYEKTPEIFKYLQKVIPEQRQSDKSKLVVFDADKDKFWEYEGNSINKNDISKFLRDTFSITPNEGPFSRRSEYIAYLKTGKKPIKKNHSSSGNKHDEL

Cpr5p [3] = target: T2, Cpr5p (S. cerevisiae, UniProt P35176 23-225)
T2 sequence (P35176 23-225): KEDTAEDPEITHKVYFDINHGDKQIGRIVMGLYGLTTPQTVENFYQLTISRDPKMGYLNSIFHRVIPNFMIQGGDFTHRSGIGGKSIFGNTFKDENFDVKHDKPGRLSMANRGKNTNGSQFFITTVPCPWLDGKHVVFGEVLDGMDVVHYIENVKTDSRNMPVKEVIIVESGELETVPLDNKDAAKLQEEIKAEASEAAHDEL

Mpd1p [4] = target: T1, Mpd1p; remark: listed apart in the source
Yos9p = target: T3, Yos9p (S. cerevisiae, UniProt Q99220 22-542)
T3 sequence: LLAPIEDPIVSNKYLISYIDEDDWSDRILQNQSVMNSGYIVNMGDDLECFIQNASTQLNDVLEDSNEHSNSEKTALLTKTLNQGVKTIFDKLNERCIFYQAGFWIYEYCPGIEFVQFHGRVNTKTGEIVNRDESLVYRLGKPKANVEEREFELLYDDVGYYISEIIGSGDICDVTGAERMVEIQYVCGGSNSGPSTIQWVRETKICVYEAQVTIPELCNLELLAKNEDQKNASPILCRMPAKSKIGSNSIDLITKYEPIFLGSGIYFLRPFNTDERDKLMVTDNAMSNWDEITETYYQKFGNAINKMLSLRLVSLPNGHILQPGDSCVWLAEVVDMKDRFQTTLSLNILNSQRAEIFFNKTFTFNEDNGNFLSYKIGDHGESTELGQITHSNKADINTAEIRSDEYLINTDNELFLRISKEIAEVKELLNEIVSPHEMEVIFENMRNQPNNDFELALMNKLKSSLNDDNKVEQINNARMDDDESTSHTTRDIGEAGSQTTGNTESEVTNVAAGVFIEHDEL

Cpr5p [5] = target: T2, Cpr5p; remark: listed apart in the source
Scj1p = target: T4, Scj1p (S. cerevisiae, UniProt P25303 22-377)
T4 sequence: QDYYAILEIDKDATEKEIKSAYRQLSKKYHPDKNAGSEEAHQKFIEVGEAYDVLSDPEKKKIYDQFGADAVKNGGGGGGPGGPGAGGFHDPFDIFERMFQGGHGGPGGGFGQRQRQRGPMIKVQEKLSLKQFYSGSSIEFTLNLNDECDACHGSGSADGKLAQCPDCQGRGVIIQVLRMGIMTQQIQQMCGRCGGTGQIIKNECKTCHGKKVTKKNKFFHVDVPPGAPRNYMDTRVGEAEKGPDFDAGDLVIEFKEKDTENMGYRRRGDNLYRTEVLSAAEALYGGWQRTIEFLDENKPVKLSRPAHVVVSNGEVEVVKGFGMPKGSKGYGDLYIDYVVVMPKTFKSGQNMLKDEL

Sil1p = target: T5, Sil1p (S. cerevisiae, UniProt Q08199 20-421)
T5 sequence: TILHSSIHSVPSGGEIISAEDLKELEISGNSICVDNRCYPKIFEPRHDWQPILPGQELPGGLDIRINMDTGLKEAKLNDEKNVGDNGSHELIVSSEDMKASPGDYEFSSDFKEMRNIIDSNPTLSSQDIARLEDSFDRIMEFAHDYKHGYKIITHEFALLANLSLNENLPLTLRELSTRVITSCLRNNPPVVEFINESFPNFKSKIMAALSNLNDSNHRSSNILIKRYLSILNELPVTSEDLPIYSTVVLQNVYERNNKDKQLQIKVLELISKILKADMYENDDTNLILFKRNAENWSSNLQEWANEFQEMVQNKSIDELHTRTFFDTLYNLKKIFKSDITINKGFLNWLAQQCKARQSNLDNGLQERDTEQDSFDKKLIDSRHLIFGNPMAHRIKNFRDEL

Kar2p [6] = target: B1; remark: listed apart in the source
Lto1p = target: T6, Lto1p (yeast, UniProt P53846 1-162)
T6 sequence: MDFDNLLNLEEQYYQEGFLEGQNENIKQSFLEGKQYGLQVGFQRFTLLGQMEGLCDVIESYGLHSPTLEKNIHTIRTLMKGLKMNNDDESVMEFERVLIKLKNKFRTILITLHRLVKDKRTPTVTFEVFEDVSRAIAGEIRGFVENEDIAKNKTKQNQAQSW

Sequence of Kar2p (P16474 43-682): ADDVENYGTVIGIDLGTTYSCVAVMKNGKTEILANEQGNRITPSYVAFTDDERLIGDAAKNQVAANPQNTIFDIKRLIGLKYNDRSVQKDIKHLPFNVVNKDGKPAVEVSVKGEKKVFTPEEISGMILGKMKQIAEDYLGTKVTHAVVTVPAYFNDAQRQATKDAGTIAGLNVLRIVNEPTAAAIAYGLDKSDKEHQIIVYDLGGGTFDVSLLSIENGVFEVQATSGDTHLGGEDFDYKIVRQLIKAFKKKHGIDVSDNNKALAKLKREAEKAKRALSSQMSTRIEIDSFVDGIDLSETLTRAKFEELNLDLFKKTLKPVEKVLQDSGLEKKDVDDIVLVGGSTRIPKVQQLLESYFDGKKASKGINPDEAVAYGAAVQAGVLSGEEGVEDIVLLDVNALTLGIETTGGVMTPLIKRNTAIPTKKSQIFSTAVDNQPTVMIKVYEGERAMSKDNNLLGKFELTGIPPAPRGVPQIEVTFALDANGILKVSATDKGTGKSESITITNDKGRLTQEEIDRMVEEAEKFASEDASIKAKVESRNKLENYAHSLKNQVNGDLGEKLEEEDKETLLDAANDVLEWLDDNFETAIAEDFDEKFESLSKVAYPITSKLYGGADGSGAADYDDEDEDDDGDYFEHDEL

Binder	normalized interacting score (Cpr5p [3])	normalized interacting score (Cpr5p [5])	normalized interacting score (Scj1p)	normalized interacting score (Sil1p)	also measured
Sed4p (natural protein) MSGNSANYDVGYPIYGAKFINEGTLLVAGGGGQFNSSFPNKITALKVNFQKKKHIRRFREITLDSIDDAPTSLDCNNNLILVGCNELFNDSSMENVNHHLRKFVFEQEHLKFVASIDFNRTTDPSVFTKFVYINQRATVAAIASSEVPTVIRIIDPRNLTENYEIETGREVNDLHFAPNGILLSYITSNSLEVASVRDGNFVARKTDFDKNLVLSNIRFLNDNTLLVAASLSNSDGVSLLKLGVSSKGVKILKTASFMFDLNGITSMDVSPNKKFVALSSNDNLVAIVSVEKLKLVQLVPRVHESTITKVTFSPDSRYLASTSMGNTINVLKLSGTSSSILRNIWKFFLNFVLLVVLAGAIQLGYKHNVHGFIYKHAHDIYKSKFKENTTIDQGSSSYFTINDDYRGITESADIISATDVASDIETEFSSFDTSTMRTTTEDEQKFVWISSSADSQFTSADIPTSASSSSSSSSSSFYEESVTNEPIVSSPTSEITKPLASPTEPNIVEKPSLPLNSESIDLLSSSSNSITEYPEPTPDLEEKLSSLIVEQSESEITTDRESVSKLLSTESPSLSHMPSSSSSSLSLSSSLTTSPTTALSTSTATAVTTTQTNPTNDAANTSFLDNSKPASTREIYKTKIITEVITKIEYRNIPASDSNAEAEQYVTTSSSMLLTPTDTMVSSPVSEIDPIASELERMVETPTHSISIASEFDSVASNLIPNEEILSTSASQDSISSHPSTFSDSSITSGFQSIEVSTVTSSVLASESIPSISDSTFSKFHSISEPVSSAIVETATSSFSKTETKTSRVIAFSTEDSERSSALIDNSEYTSVLADNLEPTSVLADNSEPTSVLADSSEPTSVFTDAVQSPKTSVGQSSLSESTNIEGTSMASMIFSSSGASIGALSDIGKGTLSVESASSTVAQPMPGVTTTAPSFVSSPHKISASSIDASGFVQKEIMIEVQSSKDSSEAFGVRHKISENVNTPVSRMLTTEMQASGTVDVTEDVSLSSEVISALNVEITSLPNPVAPPQTIAAPLNNNSNTNIVNDDNAVAGTVNYAGLHDEL					normalized interacting score (Kar2p [1]): 34%
B1	31%	78%	10%	35%	normalized interacting score (Mpd1p [2]): 65%; normalized interacting score (Mpd1p [4]): 86%; normalized interacting score (Yos9p): 20%
Sec20p (natural protein) MVVTFLQDLEVLQDALLNNLQKLSAISRRKESGESKHDNKDSFAAIANEHNDEEEEIEFEDLVNIIESKVSDFESVLKCSIVEMTYKYPELKLQWEKSPRYDQCDKLHIVKLDKQMNEDIYAQLVEELDFVLQFVDWFYCYRLKVKEILRQHHKRDLAWNDEKRDRAIKFHAVDYDKLHQGTSSSSSLTSTSMEKASTREKLLSKTKQLTNNLVRGNQILQSGILQSDLNLDELRAQTNSLTQIDDKYTQFETVFKKTADLVKVLENASHQEKRDVYLSLGFLLCCVSWVLWRRIFKLPVKLGLWLLFKFFKGILVTLGLVKSYAGSSSSLQAPSLVLNAPILATTTTSSATSVEPFASVSAVSSIQRAVDEAVDRIVSHDEL		26%		32%	normalized interacting score (Kar2p [6]): 42%
Pdi1p (natural protein) PEDSAVVKLATDSFNEYIQSHDLVLAEFFAPWCGHCKNMAPEYVKAAETLVEKNITLAQIDCTENQDLCMEHNIPGFPSLKIFKNSDVNNSIDYEGPRTAEAIVQFMIKQSQPAVAVVADLPAYLANETFVTPVIVQSGKIDADFNATFYSMANKHFNDYDFVSAENADDDFKLSIYLPSAMDEPVVYNGKKADIADADVFEKWLQVEALPYFGEIDGSVFAQYVESGLPLGYLFYNDEEELEEYKPLFTELAKKNRGLMNFVSIDARKFGRHAGNLNMKEQFPLFAIHDMTEDLKYGLPQLSEEAFDELSDKIVLESKAIESLVKDFLKGDASPIVKSQEIFENQDSSVFQLVGKNHDEIVNDPKKDVLVLYYAPWCGHCKRLAPTYQELADTYANATSDVLIAKLDHTENDVRGVVIEGYPTIVLYPGGKKSESVVYQGSRSLDSLFDFIKENGHFDVDGKALYEEAQEKAAEEADADAELADEEDAIHDEL	18%	32%			
Yae1p (natural protein) MSNTWDDVWASDSDVETERSPDLVKLRENHSKRGYLDGIVSSKEEKLQEGFNDGFPTGAKLGKQVGIIMGILLGLRTRFGDEDEDLSKAYIDAQKELRINKVLSKSIFDPNFDLQEKHPLITKWTDIANTYCEKYHVPSIQ					normalized interacting score (Lto1p): 96%
Eug1p (natural protein) TPGSDLLVLTEKKFKSFIESHPLVLVEFFAPWCLHSQILRPHLEEAASILKEHNVPVVQIDCEANSMVCLQQTINTYPTLKIFKNGRIFDGQVYRGVKITDEITQYMIQLYEASVIYLNSEDEIQPYLENATLPVVINRGLTGLNETYQEVALDLAEDYVFLSLLDSEDKSLSIHLPNTTEPILFDGNVDSLVGNSVALTQWLKVVILPYFTDIEPDLFPKYISSNLPLAYFFYTSEEELEDYTDLFTQLGKENRGQINFIALNSTMFPHHVRFLNMREQFPLFAIHNMINNLKYGLPQLPEEEYAKLEKPQPLDRDMIVQLVKDYREGTAKPIVKSEEIPKEQKSNVYKIVGKTHDDIVHDDDKDVLVKYYATWCIHSKRFAPIYEEIANVLASDESVRDKILIAEVDSGANDILSFPVTGYPTIALYPAGNNSKPIIFNKIRNLEDVFEFIKESGTHHIDGQAIYDKLHQAKDSEVSTEDTVHDEL			5%		
